Non-standard residues stand in square brackets, D forms with d. No end group written: not given here. *: point of attachment. Phe(3-CF3) = N[C@@H](Cc1cccc(C(F)(F)F)c1)C(=O)O; Tfa = O=C(C(F)(F)F)*
What was measured:
Format in all cases: biochemical
[1] = target: T1, protein Ser/Thr kinase AKT1 (Homo sapiens, UniProt P31749); experiment: 19F NMR assay of phosphorylation of CF3-labeled peptide by AKT1
T1 construct: baculovirus coding for the full length protein fused to GST at the N-terminus; GST (N, cleaved yes); made in house; host or cells: Sf21 insect cells (baculovirus), treated with okadaic acid before harvest
Method: D2O was added to the solutions (8% final concentration) for the lock signal.

[2] = target: T2, trypsin from bovine pancreas (Bos taurus, UniProt P00760); experiment: 19F NMR assay of cleavage of CF3-labeled peptide by trypsin; settings: 15 nM trypsin
T2 construct: purchased Roche Molecular Biochemical 1418025; host or cells: bovine pancreas
T2 sequence (P00760 24-246): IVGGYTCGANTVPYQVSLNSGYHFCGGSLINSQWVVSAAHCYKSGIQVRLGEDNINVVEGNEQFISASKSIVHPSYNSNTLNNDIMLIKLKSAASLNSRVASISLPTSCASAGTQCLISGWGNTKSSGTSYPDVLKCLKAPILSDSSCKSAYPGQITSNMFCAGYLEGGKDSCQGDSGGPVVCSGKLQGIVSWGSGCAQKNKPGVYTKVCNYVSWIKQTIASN
Method: FIG. 4 provides the screening of proteases, where the substrate is the peptide of Seq ID NO:2 and the protein is trypsin from bovine pancreas. ^19F NMR spectra for the peptide in the absence (a) and in the presence (b–e) of trypsin. The reaction was run at 22° C. and quenched after 30 minutes with the addition of 0.5 mM phenylmethylsulfonyl fluoride (PMSF). The reaction was performed in the absence of compound (b), in the presence of a five compound mixture (2-amino-6 methylquinazolin-4 ol, ethyl 2-quinoxalinecarboxylate, 5-methyl-benzimidazole, methyl isoquinoline-3-carboxylate, and leupeptin) (c), in the presence of the same mixture without leupeptin (d), and in the presence of only leupeptin (e). The protein, peptide, and compound concentrations were 15 nM, 30 μM, and 20 μM, respectively. A total of 128 scans with 2.8 s repetition time were recorded for each spectrum (6 minute measuring time). Pep and C-pep are the substrate and the product respectively.
The method of the present invention can also be applied to many different types and subtypes of enzymes (e.g. proteases, phosphatases, ligases, etc.). […]
All NMR spectra were recorded at 20° C. with a 600 NMR spectrometer operating at a ^19F Larmor frequency of 564 MHZ. […]

[3] = target: T3, p21-activated kinase PAK4 (Homo sapiens, UniProt O96013); experiment: 19F NMR assay of CF3-labeled peptide with PAK4 (protein function)
T3 construct: GST (cleaved yes); made in house; host or cells: Escherichia coli
Method: FIG. 5 provides the 19F spectra of the peptide of Seq ID NO:2 in the presence of three different proteins, 25 nM AKT1 (FIG. 5A top), 15 nM trypsin (FIG. 5B middle) and 150 nM PAK4 (FIG. 5C bottom). […] The chemical shift of the cleaved peptide is quite different when compared to the chemical shift of the phosphorylated peptide.
In another embodiment of the present invention, three different proteins, AKT1, Trypsin, and p-21 activated protein (PAK4) were incubated with the CF3-labeled peptide of Seq ID NO:2. […] A higher concentration of the protein with unknown function and a longer incubation period may be required because the substrate may not be optimal for the protein with unknown function. The speed of the enzymatic reaction of PAK4 is only 1/22 of the speed of AKT1, therefore, the period of time for the reaction in the presence of PAK4 was longer than the period of time for the reaction in the presence of AKT1. The method of the present invention is also applicable to activated enzymes.
The serine/threonine p21-activated kinase PAK4 was expressed as a GST fusion protein in Escherichia coli and purified to homogeneity after removal of the GST tag.
All NMR spectra were recorded at 20° C. with a 600 NMR spectrometer operating at a ^19F Larmor frequency of 564 MHZ. A 5 mm probe tunable to either 19F or ^1H frequency was used. […]

T1 sequence (P31749 whole entry, the tested form may be a part): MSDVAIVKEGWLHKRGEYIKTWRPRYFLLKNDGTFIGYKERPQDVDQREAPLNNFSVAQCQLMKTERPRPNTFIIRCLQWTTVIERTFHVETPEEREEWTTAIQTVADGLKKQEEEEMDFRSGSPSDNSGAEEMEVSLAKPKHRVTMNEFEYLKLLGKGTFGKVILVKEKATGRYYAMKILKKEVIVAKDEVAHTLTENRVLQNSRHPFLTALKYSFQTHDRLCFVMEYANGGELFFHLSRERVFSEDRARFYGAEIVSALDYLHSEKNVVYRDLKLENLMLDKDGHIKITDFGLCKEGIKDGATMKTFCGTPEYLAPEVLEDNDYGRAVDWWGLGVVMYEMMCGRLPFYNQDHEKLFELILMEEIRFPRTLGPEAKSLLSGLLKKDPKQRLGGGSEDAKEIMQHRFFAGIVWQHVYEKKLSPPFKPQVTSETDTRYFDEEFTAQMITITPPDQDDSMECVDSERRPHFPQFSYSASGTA
T3 sequence (O96013 whole entry): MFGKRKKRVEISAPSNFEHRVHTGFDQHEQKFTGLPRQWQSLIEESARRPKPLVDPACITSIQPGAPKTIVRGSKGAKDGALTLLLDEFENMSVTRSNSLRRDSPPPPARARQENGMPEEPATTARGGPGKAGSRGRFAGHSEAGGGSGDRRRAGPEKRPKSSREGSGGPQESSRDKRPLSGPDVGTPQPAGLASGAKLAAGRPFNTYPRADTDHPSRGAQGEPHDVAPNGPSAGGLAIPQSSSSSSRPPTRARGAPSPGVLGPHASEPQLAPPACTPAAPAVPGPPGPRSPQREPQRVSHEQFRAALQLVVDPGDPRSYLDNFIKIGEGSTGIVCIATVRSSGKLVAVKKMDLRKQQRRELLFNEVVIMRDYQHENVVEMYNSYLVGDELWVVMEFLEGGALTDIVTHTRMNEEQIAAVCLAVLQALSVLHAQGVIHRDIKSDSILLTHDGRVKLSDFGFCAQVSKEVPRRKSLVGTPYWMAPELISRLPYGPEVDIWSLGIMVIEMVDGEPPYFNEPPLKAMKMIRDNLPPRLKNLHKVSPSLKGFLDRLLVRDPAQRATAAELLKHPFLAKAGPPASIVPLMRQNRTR

## Nc1ncnc2c1ncn2[C@@H]1O[C@H](COP(=O)(O)OP(=O)(O)OP(=O)(O)O)[C@@H](O)[C@H]1O [ATP]
[1]; 40 nM protein, 30 μM substrate peptide, 22° C., quenched after 60 minutes, read-out: KM / binding constant for ATP
  Km: 89 µM

## O=S(=O)(NCCNC/C=C/c1ccc(Br)cc1)c1cccc2cnccc12 [H89]
[1]; reaction in the presence of only H89 (deconvolution of five molecule mixture)
  inhibition of peptide phosphorylation: inhibitory effect over peptide phosphorylation

## CC(=O)N[C@@H](CC(C)C)C(=O)N[C@@H](CC(C)C)C(=O)N[C@H](C=O)CCCNC(=N)N [leupeptin, reference compound]
[2]; 20 μM compound, 30 μM peptide, 22° C., quenched after 30 minutes
  inhibition of peptide cleavage by trypsin (cleaved peptide signal): missing cleaved peptide signal

## CN[C@@H]1C[C@H]2O[C@@](C)([C@@H]1OC)n1c3ccccc3c3c4c(c5c6ccccc6n2c5c31)C(=O)NC4 [staurosporine]
[1]; 10 μM Staurosporine, 50 nM protein, 30 μM peptide, 131 μM ATP
  formation of phosphorylated peptide in the presence of inhibitor: did not result in any formation of phosphorylated peptide

## ARKRERAF(3-CF3)SFGHHA (ARKRERA[Phe(3-CF3)]SFGHHA) [peptide of Seq ID NO:2, CF3-labeled peptide substrate for trypsin, AKT1 and PAK4]
[3]; 150 nM PAK4
  19F signal after reaction with PAK4: appearance of a signal at the chemical shift of the phosphorylated peptide
[3]; ratio to speed of AKT1
  speed of the enzymatic reaction of PAK4 relative to AKT1: 1/22
[1]; 25 nM AKT1
  substrate quality for AKT1: good substrate
[2]
  substrate quality for trypsin: good substrate

## CF3—CO-ARKRERAYSFGHHA (Tfa-ARKRERAYSFGHHA) [CF3-labeled peptide of Seq ID NO:1, AKTide, 14 aminoacid peptide labeled with CF3 by N-terminal capping with trifluoroacetic anhydride]
[1]; 50 nM protein, 30 μM peptide, 131 μM ATP, no inhibitor
  time after which the enzymatic reaction is complete: 149 min

— patent publication US7255985B2, “Fluorine NMR spectroscopy for biochemical screening” (Pfizer Italia S.r.l., priority 2003, dated 2007)
